Values quoted from earlier work, collected in PMC5371862.

Key:
[1] = target: muscarinic acetylcholine receptor M4 (Homo sapiens) (UniProt P08173)
[2] = target: muscarinic acetylcholine receptor M1 (Homo sapiens) (UniProt P11229)
P-type calcium channel = P-type calcium channel (UniProt O00555)
[3] = target: lethal factor (Bacillus anthracis) (UniProt P15917)
[4] = target: edema factor (Bacillus anthracis) (UniProt P40136)
edema factor (Bacillus anthracis), sequence (P40136 34-800): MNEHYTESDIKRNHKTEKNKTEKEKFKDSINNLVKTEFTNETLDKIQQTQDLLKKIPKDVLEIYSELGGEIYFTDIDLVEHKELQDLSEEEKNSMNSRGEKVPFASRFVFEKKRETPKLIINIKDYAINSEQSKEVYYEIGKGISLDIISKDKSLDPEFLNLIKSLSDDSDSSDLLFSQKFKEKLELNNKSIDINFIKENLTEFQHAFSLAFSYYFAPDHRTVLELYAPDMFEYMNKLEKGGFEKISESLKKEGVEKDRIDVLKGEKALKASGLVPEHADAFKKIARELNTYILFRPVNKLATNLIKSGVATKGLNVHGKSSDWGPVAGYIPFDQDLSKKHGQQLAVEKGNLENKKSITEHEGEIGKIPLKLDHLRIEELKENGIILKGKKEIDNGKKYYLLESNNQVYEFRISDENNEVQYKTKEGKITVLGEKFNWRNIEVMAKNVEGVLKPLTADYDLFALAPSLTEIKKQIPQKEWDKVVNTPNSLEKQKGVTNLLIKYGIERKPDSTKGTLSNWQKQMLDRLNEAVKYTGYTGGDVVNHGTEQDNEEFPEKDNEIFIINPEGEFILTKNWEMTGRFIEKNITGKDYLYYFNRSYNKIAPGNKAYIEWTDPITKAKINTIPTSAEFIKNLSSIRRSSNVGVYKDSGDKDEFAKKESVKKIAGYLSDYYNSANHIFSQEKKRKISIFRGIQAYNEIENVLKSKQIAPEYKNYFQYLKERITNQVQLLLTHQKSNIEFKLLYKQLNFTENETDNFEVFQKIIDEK

protective antigen PA63 oligomer PA63, sequence (P13423 197-764): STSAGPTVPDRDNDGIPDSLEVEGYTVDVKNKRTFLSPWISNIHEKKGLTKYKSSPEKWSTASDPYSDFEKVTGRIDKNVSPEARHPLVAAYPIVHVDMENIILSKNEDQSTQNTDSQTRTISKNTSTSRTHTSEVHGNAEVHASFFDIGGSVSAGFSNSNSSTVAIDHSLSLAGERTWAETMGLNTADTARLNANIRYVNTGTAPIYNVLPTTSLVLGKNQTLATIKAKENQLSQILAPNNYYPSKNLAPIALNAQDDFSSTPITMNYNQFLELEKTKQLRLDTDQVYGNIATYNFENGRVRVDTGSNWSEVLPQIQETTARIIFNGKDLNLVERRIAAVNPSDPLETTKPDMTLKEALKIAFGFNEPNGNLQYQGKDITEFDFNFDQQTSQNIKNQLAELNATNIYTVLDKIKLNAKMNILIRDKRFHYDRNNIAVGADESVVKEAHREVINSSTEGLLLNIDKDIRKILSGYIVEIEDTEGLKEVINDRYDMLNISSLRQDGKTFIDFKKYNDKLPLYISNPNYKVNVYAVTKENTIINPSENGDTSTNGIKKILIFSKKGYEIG
muscarinic acetylcholine receptor M4 (Homo sapiens), sequence (P08173 whole entry): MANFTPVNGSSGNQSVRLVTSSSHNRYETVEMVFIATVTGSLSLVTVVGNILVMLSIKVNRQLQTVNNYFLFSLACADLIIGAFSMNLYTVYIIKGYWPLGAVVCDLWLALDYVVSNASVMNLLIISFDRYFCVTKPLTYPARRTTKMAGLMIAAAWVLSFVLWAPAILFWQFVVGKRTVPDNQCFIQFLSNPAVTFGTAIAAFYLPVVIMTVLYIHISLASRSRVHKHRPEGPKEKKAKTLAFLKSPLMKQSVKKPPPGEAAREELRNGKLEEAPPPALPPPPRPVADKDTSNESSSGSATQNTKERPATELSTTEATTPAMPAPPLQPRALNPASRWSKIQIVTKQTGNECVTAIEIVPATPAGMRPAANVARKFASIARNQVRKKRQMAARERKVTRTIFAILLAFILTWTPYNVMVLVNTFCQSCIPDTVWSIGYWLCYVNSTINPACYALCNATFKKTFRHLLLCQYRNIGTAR
omega-agatoxin Aga-IVA, sequence (P30288 whole entry): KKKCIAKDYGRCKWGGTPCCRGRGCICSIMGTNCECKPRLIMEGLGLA
muscarinic toxin MT3, sequence (P81031 whole entry): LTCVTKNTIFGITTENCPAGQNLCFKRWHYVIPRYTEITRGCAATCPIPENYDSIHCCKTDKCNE
muscarinic toxin MT7, sequence (Q8QGR0 22-86): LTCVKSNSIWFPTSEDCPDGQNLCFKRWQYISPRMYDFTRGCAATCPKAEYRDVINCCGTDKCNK
muscarinic acetylcholine receptor M1 (Homo sapiens), sequence (P11229 whole entry): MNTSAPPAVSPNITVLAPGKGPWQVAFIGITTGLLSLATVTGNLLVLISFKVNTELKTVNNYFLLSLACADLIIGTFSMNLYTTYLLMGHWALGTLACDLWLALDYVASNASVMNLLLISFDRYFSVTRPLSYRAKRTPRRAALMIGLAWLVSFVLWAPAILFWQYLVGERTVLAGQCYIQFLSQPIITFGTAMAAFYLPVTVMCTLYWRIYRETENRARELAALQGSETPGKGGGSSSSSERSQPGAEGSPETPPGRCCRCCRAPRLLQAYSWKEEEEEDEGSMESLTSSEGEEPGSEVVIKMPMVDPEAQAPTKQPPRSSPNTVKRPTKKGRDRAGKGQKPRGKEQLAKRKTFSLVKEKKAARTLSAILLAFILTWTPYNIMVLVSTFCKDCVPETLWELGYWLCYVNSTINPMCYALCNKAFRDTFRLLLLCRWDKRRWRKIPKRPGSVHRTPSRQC
lethal factor (Bacillus anthracis), sequence (P15917 34-809): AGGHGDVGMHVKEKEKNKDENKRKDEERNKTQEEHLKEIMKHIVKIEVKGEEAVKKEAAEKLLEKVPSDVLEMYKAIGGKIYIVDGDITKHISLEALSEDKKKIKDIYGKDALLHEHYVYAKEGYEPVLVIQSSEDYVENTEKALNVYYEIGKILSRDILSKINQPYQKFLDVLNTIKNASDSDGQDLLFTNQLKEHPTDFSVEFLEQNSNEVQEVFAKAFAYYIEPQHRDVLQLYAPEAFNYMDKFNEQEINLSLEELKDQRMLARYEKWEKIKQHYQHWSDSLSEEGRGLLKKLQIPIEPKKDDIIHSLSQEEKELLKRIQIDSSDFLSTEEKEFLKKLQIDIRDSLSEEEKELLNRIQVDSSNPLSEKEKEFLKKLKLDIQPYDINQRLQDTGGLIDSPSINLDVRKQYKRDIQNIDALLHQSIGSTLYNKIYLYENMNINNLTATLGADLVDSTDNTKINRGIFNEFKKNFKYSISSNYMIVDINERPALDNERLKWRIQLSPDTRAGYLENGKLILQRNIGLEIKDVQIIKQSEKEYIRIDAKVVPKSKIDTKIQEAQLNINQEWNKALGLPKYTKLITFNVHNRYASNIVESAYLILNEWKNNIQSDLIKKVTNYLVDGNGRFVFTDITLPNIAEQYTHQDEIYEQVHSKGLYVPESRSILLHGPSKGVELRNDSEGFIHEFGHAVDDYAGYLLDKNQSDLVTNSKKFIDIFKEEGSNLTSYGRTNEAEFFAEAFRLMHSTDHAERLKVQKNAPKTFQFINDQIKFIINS

muscarinic toxin MT3 (from UniProt P81031)
Ki [1]: 2 nM

muscarinic toxin MT7 (from UniProt Q8QGR0)
Ki [2]: 0.014 nM

omega-agatoxin Aga-IVA (from UniProt P30288)
Kd (P-type calcium channel): 3 nM

protective antigen PA63 oligomer PA63 (from UniProt P13423)
Kd [3]: 1 nM | Kd [4]: 1 nM
